This note sets out measurements from patent US20230125561A1 (PNEUMAGEN, published 2023).

For assay [1], the target named is T1, SARS-CoV-2 Spike S1 protein, Wuhan (Wuhan-Hu-1, Dec 2019 isolate) (SARS-CoV-2, UniProt P0DTC2 16-685).
T1 construct: domain: S1; also called original Spike protein
Nature of the assay: ELISA: Spike S1 immobilised at 1 µg/mL, Neumifil titrated, detected with rabbit anti-Neumifil and HRP anti-rabbit IgG, 4PL fit.

The target of assay [2] is T2, recombinant human ACE2 (Angiotensin-converting enzyme 2) (human, UniProt Q9BYF1 18-740).
T2 construct: Bought recombinant protein
Nature of the assay: ELISA: ACE2 immobilised at 1 µg/mL, Neumifil titrated, detected with rabbit anti-Neumifil and HRP anti-rabbit IgG, 4PL fit.

T2 sequence (Q9BYF1 18-740 limits assumed): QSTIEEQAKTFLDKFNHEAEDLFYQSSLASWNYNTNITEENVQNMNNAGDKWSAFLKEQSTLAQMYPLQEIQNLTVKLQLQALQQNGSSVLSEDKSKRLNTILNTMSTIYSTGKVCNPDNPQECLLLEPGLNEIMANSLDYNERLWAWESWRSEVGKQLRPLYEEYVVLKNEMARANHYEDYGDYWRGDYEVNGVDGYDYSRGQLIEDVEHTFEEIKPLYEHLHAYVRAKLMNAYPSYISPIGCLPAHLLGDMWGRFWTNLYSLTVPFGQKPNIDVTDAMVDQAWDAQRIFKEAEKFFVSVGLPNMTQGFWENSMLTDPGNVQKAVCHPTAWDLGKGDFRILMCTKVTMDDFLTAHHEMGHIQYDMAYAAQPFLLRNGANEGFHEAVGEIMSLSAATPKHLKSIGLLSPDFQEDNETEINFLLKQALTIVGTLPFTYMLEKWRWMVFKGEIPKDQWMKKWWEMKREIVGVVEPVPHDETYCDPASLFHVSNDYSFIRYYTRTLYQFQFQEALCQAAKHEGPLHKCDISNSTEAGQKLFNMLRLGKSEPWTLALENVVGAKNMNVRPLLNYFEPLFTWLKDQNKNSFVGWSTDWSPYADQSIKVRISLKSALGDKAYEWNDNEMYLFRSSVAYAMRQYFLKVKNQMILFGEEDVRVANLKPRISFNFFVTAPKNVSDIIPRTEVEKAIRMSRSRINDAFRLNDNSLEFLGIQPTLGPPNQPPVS

B1: Neumifil (HEX17: trimeric (hexavalent) form based on S. pneumoniae CBM40) (designed binder)
chain: GAMVIEKEDVETNASNGQRVDLSSELDKLKKLENATVHMEFKPDPKAPAFYNLFSVSSATKKDEYFTMAVYNNTATLEGRGSDGKQFYNNYNDAPLKVKPGQWNSVTFTVEKPTAELPKGRARLYVNGGLSRTSLRSGNFIKDMPDVTHVQIGATKRANNTVWGSNLQIRNLTVYNRALTPEEVQKRSGGGSGVIEKEDVETNASNGQRVDLSSELDKLKKLENATVHMEFKPDPKAPAFYNLFSVSSATKKDEYFTMAVYNNTATLEGRGSDGKQFYNNYNDAPLKVKPGQWNSVTFTVEKPTAELPKGRARLYVNGGLSRTSLRSGNFIKDMPDVTHVQIGATKRANNTVWGSNLQIRNLTVYNRALTPEEVQKRSGGSLGVPDFESDWFDVSSNSLYTLSHGLQRSPRRVVVEFARSSSPSTWNIVMPSYFNDGGHKGSGAQVEVGSLNIKLGTGAAVWGTGYFGGIDNSATTRFATGYYRVRAWI
notes: also called CBM2
Regarding B1, the EC50 in assay [1] turned out to be 0.174 µg/mL; in assay [2], 0.235 µg/mL.
